This assay concerns the target T1, PDF receptor (PDFR), endogenous in the insulin producing cells (Drosophila melanogaster (endogenous in fly brain)) (UniProt Q9W4Y2).
T1 sequence: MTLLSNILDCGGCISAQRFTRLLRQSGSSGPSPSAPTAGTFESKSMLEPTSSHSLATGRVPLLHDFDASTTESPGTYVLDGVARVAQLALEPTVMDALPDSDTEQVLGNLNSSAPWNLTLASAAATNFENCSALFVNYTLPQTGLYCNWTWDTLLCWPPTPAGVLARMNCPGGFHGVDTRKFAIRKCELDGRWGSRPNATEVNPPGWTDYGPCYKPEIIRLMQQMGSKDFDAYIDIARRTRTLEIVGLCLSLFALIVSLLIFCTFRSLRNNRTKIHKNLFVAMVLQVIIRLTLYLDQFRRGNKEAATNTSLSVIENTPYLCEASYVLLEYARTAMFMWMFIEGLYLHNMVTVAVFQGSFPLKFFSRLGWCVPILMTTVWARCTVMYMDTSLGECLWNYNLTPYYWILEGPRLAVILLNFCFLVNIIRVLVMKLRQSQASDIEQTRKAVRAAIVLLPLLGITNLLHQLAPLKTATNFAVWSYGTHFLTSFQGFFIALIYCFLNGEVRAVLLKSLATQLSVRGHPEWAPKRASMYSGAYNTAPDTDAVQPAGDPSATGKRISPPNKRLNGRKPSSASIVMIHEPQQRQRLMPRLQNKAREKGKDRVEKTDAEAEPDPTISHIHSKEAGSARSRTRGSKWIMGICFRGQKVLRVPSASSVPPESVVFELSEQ

Results on 1 molecule are retold here after PMC6592559.

Ends that are not written are not given here.

The molecule NSELINSLLSLPKNMNDA-NH2 [Pigment Dispersing Factor (PDF), synthetic peptide] registered a cAMP FRET signal (Epac1camps) in the IPCs of dissected brains, 10 uM PDF bath-applied, 100-1000 s, against the HL3 negative control; no increase in the PDFR-null han mutant of 10%.
